Data as given in PMC7156504, “An in vivo platform to select and evolve aggregation-resistant proteins” (Nature Communications, 2020).
Positions count from the first letter of the chain named. Like-named read-outs stand apart in the source and are kept apart here. Each block holds one binder with its values, some of them ahead of it.

What was measured:
[1] = biological target: T1, biotinylated nerve growth factor (NGF) (Homo sapiens, UniProt P01138, biotin (biotinylated in-house, sites not stated))
T1 sequence (P01138 122-241): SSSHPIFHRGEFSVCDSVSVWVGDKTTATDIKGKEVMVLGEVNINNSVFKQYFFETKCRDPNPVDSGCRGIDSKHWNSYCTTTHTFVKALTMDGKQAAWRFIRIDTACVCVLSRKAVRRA

[2] = biological target: T1, biotinylated nerve growth factor (NGF); test: AlphaScreen or HTRF; epitope competition assay: biotinylated NGF (detected by streptavidin Europium cryptate) and DyLight650-labelled IgGWFL with increasing concentrations of test IgG; relative affinity; settings: both partners purified

binding result [2]: binds
B2: MEDI578 (the parent antibody prior to affinity maturation into MEDI1912) (antibody, V domains shown)
VH: QVQLVQSGAEVKKPGSSVKVSCKASGGTFSTYGISWVRQAPGQGLEWMGGIIPIFDTGNSAQSFQGRVTITADESTSTAYMELSSLRSEDTAVYYCARSSRIYDLNPSLTAYYDMDVWGQGTMVTVSS
VL: QSVLTQPPSVSAAPGQKVTISCSGSSSNIGNNYVSWYQQLPGTAPKLLIYDNNKRPSGIPDRFSGSKSGTSATLGITGLQTGDEADYYCGTWDSSLSAWVFGGGTKLTVL
notes: VH of MEDI578; VL of MEDI578; The entry is printed as 5J7Z in the methods; also called IgG_(MEDI578)

binding result [2]: binds
B4: evolved scFvWFL variant 59 reformatted as IgG1 (antibody, V domains shown)
VH: QVQLVQSGAEVKKPGSSVKVSCKASGGTFRFGAFTWARQAPGQGLEWMGGIIPIFGLTNLAQNFQGRATITADESTSTVYMELSSLRSEDTAVYYCARSSRIYDLNPSLTAYYDMDVWGQGTMVTVSS
VL: B2 VL with N28D, I49T, D61G
notes: human IgG1 heavy chain constant region of the TM-YTE IgG1 expression vector; human light chain constant region of the expression vector; IgG1, TM-YTE backbone; selected by the TPBLA from an error-prone PCR library of scFvWFL; source: HEK293/EBNA, co-transfected, purified from the culture medium (Protein A)

binding result [2]: binds
B6: evolved scFvWFL variant 130 reformatted as IgG1 (antibody, V domains shown)
VH: B4 VH with T28A, R30W, A37V, I52T, L57H, A68V
VL: B2 VL with N28D
notes: as for B4

binding result [2]: binds
B7: evolved scFvWFL variant 126 reformatted as IgG1 (antibody, V domains shown)
VH: B4 VH with R30W, A37V, I51F, F55S, A68V
VL: B2 VL with N28D
notes: as for B4

binding result [2]: binds
B12: evolved scFvWFL variant 176 reformatted as IgG1 (antibody, V domains shown)
VH: B4 VH with Q6R, R30W, A37V, A68V
VL: B2 VL with N28D
notes: as for B4

binding result [2]: binds
B13: evolved scFvWFL variant 139 reformatted as IgG1 (antibody, V domains shown)
VH: B4 VH with S25G, R30W, F31S, A37V, A68V, I102T
VL: B2 VL with N28D, S71T
notes: human IgG1 heavy chain constant region of the TM-YTE IgG1 expression vector; human light chain constant region of the expression vector; IgG1, TM-YTE backbone; the best performing variant of the screen; source: HEK293/EBNA, co-transfected, purified from the culture medium (Protein A)

More lines, now with the values behind:

B1: IgG STT (scFv STT) (antibody, V domains shown)
VH: B4 VH with R30S, F31T, A37V, A68V
VL: B2 VL with N28D
binding result [1]: binds

B3: evolved scFvWFL variant 37 reformatted as IgG1 (antibody, V domains shown)
VH: B4 VH with Q6P, R30W, A37V, I54T, A68V
VL: B2 VL with S25P, N28D
notes: retains W35, F36 and L64; human IgG1 heavy chain constant region of the TM-YTE IgG1 expression vector; human light chain constant region of the expression vector; IgG1, TM-YTE backbone; retains the original WFL residues (W35, F36 and L64); source: HEK293/EBNA, co-transfected, purified from the culture medium (Protein A)
binding result [2]: binds

B5: evolved scFvWFL variant 72 reformatted as IgG1 (antibody, V domains shown)
VH: B4 VH with F29S, R30W, A37V, I51T, A68V, E89D, D116G
VL: B2 VL with N28D, N31D
notes: as for B4
binding result [2]: binds

B8: evolved scFvWFL variant 11 reformatted as IgG1 (antibody, V domains shown)
VH: B4 VH with Q6R, R30W, A37V, A68V, T110A
VL: B2 VL with S21P, N28D, I76V
notes: as for B4
binding result [2]: binds

B9: DyLight650-labelled IgGWFL (antibody, V domains shown)
VH: B4 VH with R30W, A37V, A68V
VL: B2 VL with N28D
notes: as the VH of m1; human IgG1 heavy chain constant region of the TM-YTE IgG1 expression vector; as the VL of m1; human light chain constant region of the expression vector; same protein as m1; also called labelled MEDI1912; source: HEK293/EBNA, co-transfected, purified from the culture medium (Protein A); labelled with DyLight650
binding result [2]: binds

B10: evolved scFvWFL variant 16 reformatted as IgG1 (antibody, V domains shown)
VH: B4 VH with R30W, F31S, A37V, F55S, A68V, V79A
VL: B2 VL with N28D, F101I
notes: as for B4
binding result [2]: binds

B11: evolved scFvWFL variant 128 reformatted as IgG1 (antibody, V domains shown)
VH: B4 VH with R30W, A37V, A68V, Y112D
VL: B2 VL with K17E, N28D, L40P, T43A
notes: as for B3
binding result [2]: binds
